Test results reported in publication doi:10.1101/2022.04.27.489770.

Target: Spt6-YW with a C-terminal 3XFLAG epitope tag (S. cerevisiae) (UniProt P23615)
Assay: co-IP

Sequence of UniProt P23615 (P23615 whole entry): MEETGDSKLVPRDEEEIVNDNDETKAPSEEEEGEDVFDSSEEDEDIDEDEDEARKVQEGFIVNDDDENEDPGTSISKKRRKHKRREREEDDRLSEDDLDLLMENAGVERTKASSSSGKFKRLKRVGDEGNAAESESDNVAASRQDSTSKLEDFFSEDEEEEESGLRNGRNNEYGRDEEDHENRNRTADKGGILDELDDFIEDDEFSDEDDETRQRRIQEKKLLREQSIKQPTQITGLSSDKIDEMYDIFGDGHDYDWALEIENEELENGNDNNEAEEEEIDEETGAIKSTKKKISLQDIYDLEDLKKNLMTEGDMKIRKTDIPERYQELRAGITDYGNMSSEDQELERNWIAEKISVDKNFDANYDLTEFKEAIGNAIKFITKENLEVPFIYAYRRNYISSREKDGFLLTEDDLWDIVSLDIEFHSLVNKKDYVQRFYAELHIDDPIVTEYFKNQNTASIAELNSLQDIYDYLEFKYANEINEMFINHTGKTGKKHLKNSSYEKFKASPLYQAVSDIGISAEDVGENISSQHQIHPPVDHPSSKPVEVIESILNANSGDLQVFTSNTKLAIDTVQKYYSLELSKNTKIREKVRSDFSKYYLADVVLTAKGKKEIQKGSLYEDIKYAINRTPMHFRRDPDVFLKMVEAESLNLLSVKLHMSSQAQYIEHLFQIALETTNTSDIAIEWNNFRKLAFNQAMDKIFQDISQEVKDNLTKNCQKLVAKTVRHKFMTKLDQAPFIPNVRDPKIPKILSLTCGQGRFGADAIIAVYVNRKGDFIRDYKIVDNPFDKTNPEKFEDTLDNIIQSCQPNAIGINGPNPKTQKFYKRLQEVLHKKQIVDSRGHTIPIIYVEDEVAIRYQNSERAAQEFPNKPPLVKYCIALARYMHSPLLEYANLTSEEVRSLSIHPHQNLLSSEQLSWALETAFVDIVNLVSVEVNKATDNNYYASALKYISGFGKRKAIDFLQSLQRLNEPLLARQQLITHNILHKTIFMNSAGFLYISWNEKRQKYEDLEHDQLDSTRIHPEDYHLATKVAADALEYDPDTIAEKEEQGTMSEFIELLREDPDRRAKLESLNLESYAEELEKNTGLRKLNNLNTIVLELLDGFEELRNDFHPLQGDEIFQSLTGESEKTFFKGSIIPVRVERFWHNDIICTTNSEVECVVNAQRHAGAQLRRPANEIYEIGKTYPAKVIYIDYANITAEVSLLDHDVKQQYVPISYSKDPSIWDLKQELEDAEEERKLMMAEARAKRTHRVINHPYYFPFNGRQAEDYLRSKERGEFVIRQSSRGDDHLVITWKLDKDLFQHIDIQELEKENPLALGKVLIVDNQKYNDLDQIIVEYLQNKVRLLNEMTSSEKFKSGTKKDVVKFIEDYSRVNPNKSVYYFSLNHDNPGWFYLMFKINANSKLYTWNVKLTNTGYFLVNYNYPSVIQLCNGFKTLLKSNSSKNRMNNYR

fold reduction of co-immunoprecipitation against wild-type Spt6: 2 fold
B1: Mcm4-V5 (natural protein)
chain: MSQQSSSPTKEDNNSSSPVVPNPDSVPPQLSSPALFYSSSSSQGDIYGRNNSQNLSQGEGNIRAAIGSSPLNFPSSSQRQNSDVFQSQGRQGRIRSSASASGRSRYHSDLRSDRALPTSSSSLGRNGQNRVHMRRNDIHTSDLSSPRRIVDFDTRSGVNTLDTSSSSAPPSEASEPLRIIWGTNVSIQECTTNFRNFLMSFKYKFRKILDEREEFINNTTDEELYYIKQLNEMRELGTSNLNLDARNLLAYKQTEDLYHQLLNYPQEVISIMDQTIKDCMVSLIVDNNLDYDLDEIETKFYKVRPYNVGSCKGMRELNPNDIDKLINLKGLVLRSTPVIPDMKVAFFKCNVCDHTMAVEIDRGVIQEPARCERIDCNEPNSMSLIHNRCSFADKQVIKLQETPDFVPDGQTPHSISLCVYDELVDSCRAGDRIEVTGTFRSIPIRANSRQRVLKSLYKTYVDVVHVKKVSDKRLDVDTSTIEQELMQNKVDHNEVEEVRQITDQDLAKIREVAAREDLYSLLARSIAPSIYELEDVKKGILLQLFGGTNKTFTKGGRYRGDINILLCGDPSTSKSQILQYVHKITPRGVYTSGKGSSAVGLTAYITRDVDTKQLVLESGALVLSDGGVCCIDEFDKMSDSTRSVLHEVMEQQTISIAKAGIITTLNARSSILASANPIGSRYNPNLPVTENIDLPPPLLSRFDLVYLVLDKVDEKNDRELAKHLTNLYLEDKPEHISQDDVLPVEFLTMYISYAKEHIHPIITEAAKTELVRAYVGMRKMGDDSRSDEKRITATTRQLESMIRLAEAHAKMKLKNVVELEDVQEAVRLIRSAIKDYATDPKTGKIDMNLVQTGKSVIQRKLQEDLSREIMNVLKDQASDSMSFNELIKQINEHSQDRVESSDIQEALSRLQQEDKVIVLGEGVRRSVRLNNRV
